Source: patent US20160068822A1

How the values were obtained:
[1] = biological target: TALE(Ngn2)-NLS-CRY2PHR; assay: cell-based or functional assay
[2] = biological target: TALE(KLF4)-NLS-CRY2PHR; assay: cell-based or functional assay

## CIB1-NLS-VP64-2A_GFP
[1]
  Neurog2 expression peak at 12 h of light stimulation: 19 fold
  Neurog2 mRNA level 0.5 h after the end of a 6 h stimulation: 16 fold
  upregulation of Neurog2 expression at 0.5 h of light stimulation: 5 fold
[2]
  KLF4 mRNA upregulation, saturated at 5 mW/cm2 (HEK293FT cells): 2.3 fold
